Data published in patent US20200405879A1 (published 2020).

T1: CD19 (human, UniProt P15391 20-556)
T1 sequence (looked up): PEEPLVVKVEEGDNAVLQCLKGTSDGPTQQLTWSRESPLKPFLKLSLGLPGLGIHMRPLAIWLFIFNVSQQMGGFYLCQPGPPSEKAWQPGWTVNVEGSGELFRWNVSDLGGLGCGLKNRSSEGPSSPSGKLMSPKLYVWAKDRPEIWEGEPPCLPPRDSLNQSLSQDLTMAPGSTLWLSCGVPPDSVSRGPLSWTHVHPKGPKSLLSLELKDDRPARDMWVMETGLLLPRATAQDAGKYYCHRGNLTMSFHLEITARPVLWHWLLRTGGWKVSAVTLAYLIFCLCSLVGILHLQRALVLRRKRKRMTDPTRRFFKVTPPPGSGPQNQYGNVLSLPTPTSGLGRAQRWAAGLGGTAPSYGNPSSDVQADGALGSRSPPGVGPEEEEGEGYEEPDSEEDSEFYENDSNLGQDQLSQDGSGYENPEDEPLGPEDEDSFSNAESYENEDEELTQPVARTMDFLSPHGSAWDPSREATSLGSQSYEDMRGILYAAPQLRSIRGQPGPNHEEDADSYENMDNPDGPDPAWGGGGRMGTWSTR


Tests used:
CD19 = biological target: T1, CD19; assay: cell-based or functional assay; parameters: unit not given beside the values
CD22 = CD22 (human, UniProt P20273 20-847); assay: cell-based or functional assay; parameters: unit not given beside the values

| Binder | EC50, in vitro cytotoxicity (MTS cell viability) on Ramos cells, 4 days (CD19) | EC50, in vitro cytotoxicity (MTS cell viability) on Ramos cells, 4 days (CD22) |
| --- | --- | --- |
| ADCx19 (antibody, V domains shown, pyrrolobenzodiazepine (PBD) dimer warhead attached to the antibody via a cleavable linker; DAR 2+/-0.3; attachment residues not stated) VH: QVQLVQPGAEVVKPGASVKLSCKTSGYTFTSNWMHWVKQAPGQGLEWIGEIDPSDSYTNYNQNFQGKAKLTVDKSTSTAYMEVSSLRSDDTAVYYCARGSNPYYYAMDYWGQGTSVTVS VL: EIVLTQSPAIMSASPGERVTMTCSASSGVNYMHWYQQKPGTSPRRWIYDTSKLASGVPARFSGSGSGTSYSLTISSMEPEDAATYYCHQRGSYTFGGGTKLEIK | 0.000239 |  |
| ADCx22 (antibody, human IgG1, kappa, V domains shown, PBD drug-linker on heavy chain interchain cysteine Cys220 (EU numbering) = position 219 of SEQ ID NO. 15) VH: QVQLVQSGAEVKKPGSSVKVSCKASGYTFTSYWLHWVRQAPGQGLEWIGYINPRNDYTEYNQNFKDKATITADESTNTAYMELSSLRSEDTAFYFCARRDITTFYWGQGTLVTVSS VL: DIQLTQSPSSLSASVGDRVTMSCKSSQSVLYSANHKNYLAWYQQKPGKAPKLLIYWASTRESGVPSRFSGSGSGTDFTFTISSLQPEDIATYYCHQYLSSWTFGQGTKVEIKR |  | 0.0133 |
